Test system: human apolipoprotein E4
Sequence (chain, as listed by the source): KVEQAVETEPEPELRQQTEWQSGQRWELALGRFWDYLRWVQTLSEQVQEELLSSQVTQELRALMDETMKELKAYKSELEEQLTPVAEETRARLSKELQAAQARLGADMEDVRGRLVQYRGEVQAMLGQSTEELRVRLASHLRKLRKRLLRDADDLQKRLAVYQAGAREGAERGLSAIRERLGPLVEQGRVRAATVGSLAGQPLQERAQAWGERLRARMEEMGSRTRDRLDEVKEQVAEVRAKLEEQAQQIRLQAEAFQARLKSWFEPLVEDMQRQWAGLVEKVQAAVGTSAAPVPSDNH

| Substance | apoE fragmentation in NSE-apoE4 primary neurons overexpressing the enzyme |
| --- | --- |
| PCSK1 (Protein Convertase, Subtilisin/Kexin-Type-1), overexpressed by transient transfection | A mild increase of apoE fragmentation was also detected in NSE-apoE4 primary neurons overexpressing PCSK1 or PCSK2 |
| PCSK2 (Protein Convertase, Subtilisin/Kexin-Type-2), overexpressed by transient transfection | A mild increase of apoE fragmentation was also detected in NSE-apoE4 primary neurons overexpressing PCSK1 or PCSK2 |
